Data reported in patent US20220348684A1 (YALE UNIVERSITY, published 2022).
Where a chain is given by its changes, count along the chain named. Blank lines part the entries; values can stand above or below the binder they belong to. Ends that are not written are not given here. BSA = bovine serum albumin (carrier protein)

Tests used:
human renalase [1] = target: T1, human renalase (human, UniProt Q5VYX0 18-342, limits assumed); experiment: cell-based or functional assay
mouse renalase [2] = target: T2, mouse renalase (mouse, UniProt A7RDN6 18-342, limits assumed); experiment: cell-based or functional assay
T2 sequence (A7RDN6 18-342 limits assumed): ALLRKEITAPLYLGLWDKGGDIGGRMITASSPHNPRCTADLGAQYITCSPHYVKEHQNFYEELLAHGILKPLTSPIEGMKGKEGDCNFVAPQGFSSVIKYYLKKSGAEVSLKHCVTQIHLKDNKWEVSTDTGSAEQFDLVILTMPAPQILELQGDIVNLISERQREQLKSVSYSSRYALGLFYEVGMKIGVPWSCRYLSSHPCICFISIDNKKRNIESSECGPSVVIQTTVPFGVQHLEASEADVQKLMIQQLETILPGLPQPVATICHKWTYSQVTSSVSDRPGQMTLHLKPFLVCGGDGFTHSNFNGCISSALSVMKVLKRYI

human renalase [3] = target: T1, human renalase; experiment: multipoint ELISA (A450), IgG dilution series on human renalase
[4] = target: T3, renalase-1 (full-length recombinant protein) (human, UniProt Q5VYX0 18-342, limits assumed); experiment: competition ELISA on coated renalase-1: unconjugated 1D 28-4 titrated against a constant amount of biotinylated 1D 37-10, NeutrAvidin-HRP [panel A]
T3 construct: Coated on ELISA plates as bacterially expressed renalase-1; Injected as purified recombinant renalase-1 in the Biacore assay; also called renalase-1 protein; RNLS
T3 sequence (Q5VYX0 18-342 limits assumed): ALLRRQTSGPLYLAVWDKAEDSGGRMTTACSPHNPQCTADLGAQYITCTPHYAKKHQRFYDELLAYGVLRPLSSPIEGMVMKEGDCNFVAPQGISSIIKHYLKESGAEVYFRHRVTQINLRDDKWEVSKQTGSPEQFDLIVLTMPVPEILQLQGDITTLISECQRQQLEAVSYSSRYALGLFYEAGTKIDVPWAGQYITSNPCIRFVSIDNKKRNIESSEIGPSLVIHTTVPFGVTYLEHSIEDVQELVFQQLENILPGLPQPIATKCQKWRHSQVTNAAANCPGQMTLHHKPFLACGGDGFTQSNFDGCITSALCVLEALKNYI
Procedure: (§1) Specificity of Epitope Binding: Bacterially-expressed renalase isoforms, diluted to 100 ng/well in PBS, were bound to a 96 well microtiter plate by overnight incubation at 4° C. The plate was blocked with a solution of 8% NFDM in PBS for one hour at 33° C. The renalase protein was probed with a dilution series of an unconjugated antibody, typically starting at 1 μg/mL, mixed with a different biotinylated antibody. […] Both antibodies were mixed together in PBST and applied as one addition of 50μL per well. After one hour incubation at 33° C., the plate was rinsed three times with PBST. Binding of the biotinylated antibody to renalase was assayed by adding HRP-conjugated Neutravidin (HRP-NA) at 0.4 ng/mL, 50 μL per well. The plate was incubated at room temperature for 40 minutes. After incubation, the plate was washed three times with PBST and once with PBS. The HRP substrate 3, 3′, 5, 5′-tetramethylbenzidine (TMB) was added to 100 μL per well, and plate was incubated for approximately 5 minutes at room temperature. To stop the reaction, 100 μL 2 N H2504 was added to each well. The plate was read at 450 nm in a spectrophotometer.
(§2) Bacterially-expressed renalase-1, diluted to 100ng/well in PBS, was bound to a 96 well microtiter plate by overnight incubation at 4° C. […]

[5] = target: T4, 1F peptide conjugated to BSA; experiment: ELISA on coated 1F peptide-BSA conjugate, antibody dilution series, anti-rabbit IgG-HRP
T4 construct: Renalase peptide present only in renalase-1; also called 1F-BSA protein; 1F antigen; not shown: BSA carrier, chemically conjugated via the cysteine
T4 peptide: C(BSA)VLEALKNYI
Procedure: (§3) Peptide-Antigen Specificity ELISA: Bovine serum albumin (BSA)-conjugated renalase peptide antigen, diluted to 100 ng/well in PBS, was bound to a 96 well microtiter plate by overnight incubation at 4° C. The plate was blocked with a solution of 8% NFDM in PBS for one hour at 33° C. The peptide antigen was probed with a dilution series of the antibody raised against it, or with an antibody raised against a different antigen. The starting concentration of antibody was typically 5 μg/mL, with two-fold dilution steps prepared in PBS containing Tween-20 to 0.05% (PBST). After one hour incubation at 33° C., the plate was rinsed three times with PBST. Antibody binding was assayed by adding HRP-conjugated anti-rabbit IgG at 50 ng/mL, 50 μL per well. The plate was incubated at room temperature for 40 minutes. After incubation, the plate was washed three times with PBST and once with PBS. The HRP substrate 3, 3′, 5, 5′-tetramethylbenzidine (TMB) was added to 100 μL per well, and plate was incubated for approximately 5 minutes at room temperature. To stop the reaction, 100 μL 2 N […] was added to each well. The plate was read at 450 nm in a spectrophotometer.
(§4) Renalase peptides used for immunization were synthesized, then conjugated to bovine serum albumin (BSA). […] The plate was read at 450 nm in a spectrophotometer after reaction of HRP with the substrate TMB. […]

[6] = target: T5, renalase-2 (recombinant protein) (human, UniProt Q5VYX0 18-293); experiment: ELISA on coated renalase-2, antibody dilution series (axis: log (ng/ml) supe), anti-rabbit IgG-HRP
T5 construct: Bacterially expressed and coated on ELISA plates; also called renalase-2 isoform
T5 sequence (Q5VYX0 other isoform, or with tags, fused parts or gaps limits assumed): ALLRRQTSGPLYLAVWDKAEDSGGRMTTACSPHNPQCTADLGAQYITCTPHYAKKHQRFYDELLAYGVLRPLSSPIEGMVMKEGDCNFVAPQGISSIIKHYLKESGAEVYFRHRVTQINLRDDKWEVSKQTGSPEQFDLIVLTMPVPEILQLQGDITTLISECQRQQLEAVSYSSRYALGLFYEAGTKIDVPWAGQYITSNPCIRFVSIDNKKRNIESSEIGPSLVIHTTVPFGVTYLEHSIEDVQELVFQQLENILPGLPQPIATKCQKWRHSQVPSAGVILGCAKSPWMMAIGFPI
Procedure: Bacterially-expressed renalase-1 and 2 isoforms, were diluted to 100 ng/well in PBS and bound to a 96 well microtiter plate. The plate was blocked with a solution of 8% NFDM in PBS for one hour at 33° C. The renalase proteins were probed with a dilution series of the antibodies 1D-28-4, 1D-37-10, 1F-42-7, 1F-26-1 and 3A5-2. The starting concentration of antibody was typically 1μg/mL, with two-fold dilution steps prepared in PBS containing Tween-20 to 0.05% PBST. After one hour incubation at 33° C., the plate was rinsed three times with PBST. Antibody binding was assayed by adding HRP-conjugated anti-rabbit IgG at 50 ng/mL, 50μL per well. The plate was incubated at room temperature for 40 minutes. After incubation, the plate was washed three times with PBST and once with PBS. The HRP substrate 3, 3′, 5, 5′-tetramethylbenzidine (TMB) was added to 100 μL per well, and plate was incubated for approximately 5 minutes at room temperature. To stop the reaction, 100 μL 2 N H₂SO₄ was added to each well. The plate was read at 450 nm in a spectrophotometer.

[7] = target: T3, renalase-1 (full-length recombinant …); experiment: competition ELISA on coated renalase-1: unconjugated 1F 42-7 titrated against a constant amount of biotinylated 1F 26-1, NeutrAvidin-HRP [panel A]
Procedure: as §1, §2

mouse renalase [8] = target: T2, mouse renalase; experiment: multipoint ELISA (A450), IgG dilution series on mouse renalase
[9] = target: T6, peptide 3A conjugated to BSA; experiment: ELISA on peptide antigen
T6 construct: Renalase-2 specific peptide; also called 3A5; not shown: BSA carrier, chemically conjugated via the cysteine
T6 peptide: PSAGVILGC(BSA)
Procedure: as §3, §4

T1 sequence (Q5VYX0 18-342 limits assumed): as the sequence (Q5VYX0 18-342 limits assumed) above

B1: monoclonal antibody 1D-28-4 (antibody, V domains shown)
VH: QSVEESGGRLVTPGTPLTLTCTVSGFSLSSFAVGWVRQAPGKGLEYIGIISSVGITRYASWAAGRFTISKTSTTVDLKITSPTTEDTATYFCARYGYSGDVNRLDLWGQGTLVTVSS
VL: AQVLTQTASPVSAAVGGTVTINCQASQSVYDNNNLAWYQQKPGQPPKQLIYGASTLASGVSSRFKGSGSGTQFTLTISGVQCDDAATYYCLGEFSCSSADCFAFGGGTEVVVKG
notes: also called m28-RNLS; Ren1D 28-4
IC50 of % cell survival, BxPC3 (human pancreatic adenocarcinoma) cells (human renalase [1]): 1.5 nM | IC50 of % cell survival, YUMM1.7 (mouse melanoma) cells (mouse renalase [2]): 70 nM | EC50 (read off the curve) (human renalase [3]): ~0.3 nM | IC50 (read off the curve) [4]: ~2 µg/mL

B4: M28-K5 (humanized, affinity-matured variant of M28) (antibody, V domains shown)
VH: EVQLVESGGGLVQPGGSLRLSCAASGFNLSSFAVHWVRQAPGKGLEWVALISGRGTRFYADSVKGRFTISKDTSKNTAYLQMNSLRAEDTAVYYCARHWYSGGVVRLDAWGQGTLVTVSS
VL: DIQMTQSPSSLSASVGDRVTITCRASQSVYDNNNVAWYQQKPGKAPKLLIYGASTLYSGVPSRFSGSRSGTDFTLTISSLQPEDFATYYCLGEGPCSVTDCLIFGQGTKVEIKR
IC50 of % cell survival, BxPC3 (human pancreatic adenocarcinoma) cells (human renalase [1]): 24.5 nM | IC50 of % cell survival, YUMM1.7 (mouse melanoma) cells (mouse renalase [2]): 3760 nM

B5: M28-K14 (humanized, affinity-matured variant of M28) (antibody, V domains shown)
VH: B4 VH with H98Y, W99G, G103D, V105N, A109L
VL: B4 VL
notes: the residue limits are my own count; also called M28-14
IC50 of % cell survival, YUMM1.7 (mouse melanoma) cells (mouse renalase [2]): 1.41 nM | EC50 (read off the curve) (human renalase [3]): ~0.06 nM | EC50 (read off the curve) (mouse renalase [8]): ~0.08 nM

B6: M28-K13 (humanized, affinity-matured variant of M28) (antibody, V domains shown)
VH: B4 VH with S52G, G53V, T56S, R57L, F58Y
VL: B4 VL with G94F, P95S, V98S, T99A, L102F, I103A
IC50 of % cell survival, BxPC3 (human pancreatic adenocarcinoma) cells (human renalase [1]): 25.5 nM | IC50 of % cell survival, YUMM1.7 (mouse melanoma) cells (mouse renalase [2]): 31.5 nM

B7: M28-K16 (humanized, affinity-matured variant of M28) (antibody, V domains shown)
VH: B4 VH
VL: B4 VL with G94F, P95S, V98S, T99A, L102F, I103A
notes: the residue limits are my own count
IC50 of % cell survival, BxPC3 (human pancreatic adenocarcinoma) cells (human renalase [1]): 1700 nM | IC50 of % cell survival, YUMM1.7 (mouse melanoma) cells (mouse renalase [2]): 17.5 nM | EC50 (read off the curve) (human renalase [3]): ~0.05 nM | EC50 (read off the curve) (mouse renalase [8]): ~0.06 nM

B8: M28-K2 (humanized, affinity-matured variant of M28) (antibody, V domains shown)
VH: B4 VH with S52G, G53V, T56S, R57L, F58Y
VL: B4 VL
IC50 of % cell survival, BxPC3 (human pancreatic adenocarcinoma) cells (human renalase [1]): 31.7 nM | IC50 of % cell survival, YUMM1.7 (mouse melanoma) cells (mouse renalase [2]): 1330 nM

Other lines, results leading:

EC50 (read off the curve) [5]: ~0.3 µg/mL | binding result [6]: no binding (tested: 1000 ng/ml)
B2: monoclonal antibody 1F-26-1 (antibody, V domains shown)
VH: QSVKESEGGLFKPTDTLTLTCTVSGFSLSSYGVTWVRQAPGNGLEWIGLIGDRGTTFYASWAKSRSTITRNTNLNTVTLKMTRLTAADTATYFCARGSGYGARIWGPGTLVTVSS
VL: AQVLTQTPSPVSAAVGGTVTINCQSSQSVYKNNYLAWYQQKPGQPPKLLIYETSKLASGVPPRFSGSGSGTQFTLTISSVQCDDAATYYCQGGYSGVDFMAFGGGTEVVVKG
notes: Rabbit monoclonal from hybridoma, raised against the 1F peptide; also called IF 26-1

EC50 (read off the curve) [5]: ~0.3 µg/mL | binding result [6]: no binding (tested: 1000 ng/ml) | IC50 (read off the curve) [7]: ~1 µg/mL
B3: monoclonal antibody 1F-42-7 (antibody, V domains shown)
VH: B2 VH with S29T, S30T, F57Y, A62V, K63N, S64G, S114A
VL: B2 VL with V11M, V15L, S28T, K31N, A36S, A57S
notes: Rabbit monoclonal from hybridoma, raised against the 1F peptide; Biotinylated in the biotin ELISA and Biacore assays; also called IF 42-7; M42

binding result [9]: binds
B9: monoclonal antibody 3A-5-2 (antibody, V domains shown)
VH: QSLEESGGRLVTPGTPLTLTCTVSGFSLNNYHIYWVRQAPGKGLEYIGIIFNGGTYYARWTKGRFTISKTSTTVDLKMTSLTTEDTATYFCARGDGIWGPGTLVTVSL
VL: AQVLTQTPASVSAAVGGTVTINCQASQSVFNNNYLAWYQQKPGQPPKRLIYSASTLASGVSSRFKGSGSGTEFTLTMSGVECDDAATYYCAGSFDCNSGDCVAFGGGTEVVVKG
notes: Rabbit monoclonal from hybridoma, raised against the renalase-2 specific peptide 3A (3A5)
